Data taken from PMC3720550.

How the values were obtained:
Experiment in all cases: UV-vis
Settings in all cases: not stated (1 mM each of sodium phosphate, sodium citrate and sodium borate; 0.1 mM EDTA; no added salt mentioned), Polybuffer: 1 mM each of sodium phosphate, with 0.1 mM EDTA. Starting pH 9.3, titrated with 25 mM HCl., Reduced (DTT-treated, desalted) active-site dithiol form, folded, 10-25 µM protein, the oxidised (diamide) protein served as reference
Cys15 = Cys15 (UniProt position 15, PDCPPCVIVKE)
Cys12 [1] = target: Cys12 (UniProt position 12, YTQPDCPPCVI)
Cys12 [2] = target: Cys12 (UniProt position 12, YAQPDCPPCVI)

| Substance | pKa (Cys15) | pKa (Cys12 [1]) | pKa (Cys12 [2]) |
| --- | --- | --- | --- |
| Thioredoxin BC3987 (NrdH/Cp9-like small thioredoxin, C-P-P-C active site) (Bacillus cereus ATCC 14579) | 5.1 | 7.2 | – |
| Thioredoxin BC3987 T8A mutant (Bacillus cereus ATCC 14579; T8A) | – | – | 7.2 |
